The record followed here is paper PMC4652760.

By stoichiometry N is commonly meant a count of units in the complex or per binding partner.

The target of assay [1] is Streptomyces coelicolor RNase J (SCO5745) (Streptomyces coelicolor). The assay is described as follows: crystal structure; crystals from 27.5% w/v PEG 400, 0.1 M Tris-HCl pH 8.5, 18°C; co-purified RNA bound; space group P4(3)22, two protomers in the asymmetric unit; tetramer by crystallographic 2-fold symmetry.
For assay [2] the target is unchanged. Put plainly: AUC; analytical ultracentrifugation, data not shown; conditions not given.

In the case of “Streptomyces coelicolor RNase J (SCO5745) (enzyme)”, the stoichiometry N in assay [1] and in assay [2] was 4 throughout.
